In patent US20250179187A1, “ANTI PD-L2 ANTIBODY” (REJUVERON SENESCENCE THERAPEUTICS AG, priority 2022, published 2025):

Tests used:
human PD-L2 antigen [1] = target: T1, human PD-L2 antigen (Homo sapiens, UniProt Q9BQ51); assay: Single cycle kinetics on Biacore 8K, binding to human PD-L2 antigen; conditions: Table 3; preferred embodiments by Biacore
T1 sequence (Q9BQ51 20-273): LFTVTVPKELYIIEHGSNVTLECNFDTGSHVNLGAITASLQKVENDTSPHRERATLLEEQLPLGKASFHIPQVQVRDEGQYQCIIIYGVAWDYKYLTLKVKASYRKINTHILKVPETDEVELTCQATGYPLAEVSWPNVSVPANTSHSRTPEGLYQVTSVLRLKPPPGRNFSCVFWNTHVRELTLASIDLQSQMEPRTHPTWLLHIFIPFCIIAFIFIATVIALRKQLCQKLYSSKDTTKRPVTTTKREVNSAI

human PD-L2 antigen [2] = target: T1, human PD-L2 antigen; assay: as above; conditions: Table 2, cell culture supernatants
Text: Table 2: Single cycle kinetic parameters of chimeric (VH0/VK0) and humanized variants (tested as cell culture supernatants) binding to human PD-L2 antigen as determined using the Biacore 8K. As used herein, the term “KD” is intended to refer to the dissociation equilibrium constant of a particular antibody-antigen interaction, ka is the binding rate constant and kd is the dissociation rate constant. The binding affinity of antibodies of the disclosed invention may be measured or determined by standard antibody-antigen assays. The relative KD was calculated by dividing the KD of the humanized variant by that of the VH0/VK0 assayed in the same experiment.

Row | Molecule | kd (human PD-L2 antigen [1]) | kd (human PD-L2 antigen [2])
1 | VH4/VK2: humanized anti-PD-L2 variant; SEQ ID NO: 5/SEQ ID NO: 11 (antibody, V domains shown) VH: QVQLVQSGAEVKKPGSSVKVSCKASGYAFSNYFIEWVKQPPGKGLEWIGLNIPGSGGSNYAEKFKGRVTITADKSTSTAYMELSSLRSEDTAVYYCARRRLPPDWYFDVWGQGTTVTVSS VL: DVVMTQSPLSLPVTLGQPASISCRSSQSLVHSDGNTYLHWYQQKPGQPPKLLIYKVSNRFSGVPDRFSGSGSGTDFTLKISRVEAEDVGVYYCSQSTHVPWTFGGGTKVEIK | 0.000129 s⁻¹ | 0.000129 s⁻¹
2 | VH6/VK3: humanized anti-PD-L2 variant; SEQ ID NO: 6/SEQ ID NO: 12 (antibody, V domains shown) VH: QVQLVQSGAEVKKPGSSVKVSCKASGYSFSNYFIEWVKQPPGKGLEWIGLNIPGSGGSNYAEKFKGRVTITADKSTSTAYMELSSLRSEDTAVYYCARRRLPPDWYFDVWGQGTTVTVSS VL: DVVMTQSPLSLPVTLGQPASISCRSSQSLVHSGGNTYLHWYQQKPGQPPKLLIYKVSNRFSGVPDRFSGSGSGTDFTLKISRVEAEDVGVYFCSQSTHVPWTFGGGTKVEIK | 0.000444 s⁻¹ | 0.000444 s⁻¹
3 | VH0/VK0: chimeric anti-PD-L2 antibody, mouse Fab on human IgG1 backbone; SEQ ID NO: 1/SEQ ID NO: 9 (antibody, V domains shown, human IgG1 constant regions) VH: QVQLQQSGAELVRPGTSVKVSCKASGYAFSNYFIEWVKQRPGQGLEWIGLNIPGSGGSNYAEKFKGKATLTADKSSSTAYMQLSSLTSEDSAVYFCARRRLPPDWYFDVWGTGTTVTVSS VL: DVVMTQTPLSLPVSLGDQASISCRSSQSLVHSDGNTYLHWYLQKPGQSPKLLIYKVSNRFSGVPDRFSGSGSGTDFTLKISRVEAEDLGVYFCSQSTHVPWTFGGGTKLEIK | 9.72e-05 s⁻¹ | 9.72e-05 s⁻¹
4 | VH1/VK0: anti-PD-L2 variant on hIgG1; SEQ ID NO: 2/SEQ ID NO: 9 (antibody, V domains shown, human IgG1 constant regions) VH: QVQLVQSGAELKKPGSSVKVSCKASGYAFSNYFIEWVKQPPGKGLEWIGLNIPGSGGSNYAEKFKGRATITADKSTSTAYMELSSLTSEDSAVYFCARRRLPPDWYFDVWGQGTTVTVSS VL: DVVMTQTPLSLPVSLGDQASISCRSSQSLVHSDGNTYLHWYLQKPGQSPKLLIYKVSNRFSGVPDRFSGSGSGTDFTLKISRVEAEDLGVYFCSQSTHVPWTFGGGTKLEIK |  | 0.000109 s⁻¹
5 | VH8/VK2: humanized anti-PD-L2 variant; SEQ ID NO: 8/SEQ ID NO: 11 (antibody, V domains shown) VH: QVQLVQSGAEVKKPGSSVKVSCKASGYAFSNYFIEWVKQPPGKGLEWIGLNIPGSGGSNYAEKFKGRATITADKSTSTAYMELSSLRSEDTAVYYCARRRLPPDWYFDVWGQGTTVTVSS VL: DVVMTQSPLSLPVTLGQPASISCRSSQSLVHSDGNTYLHWYQQKPGQPPKLLIYKVSNRFSGVPDRFSGSGSGTDFTLKISRVEAEDVGVYYCSQSTHVPWTFGGGTKVEIK | 0.000121 s⁻¹ | 0.000121 s⁻¹
6 | VH6/VK1: humanized anti-PD-L2 variant; SEQ ID NO: 6/SEQ ID NO: 10 (antibody, V domains shown) VH: QVQLVQSGAEVKKPGSSVKVSCKASGYSFSNYFIEWVKQPPGKGLEWIGLNIPGSGGSNYAEKFKGRVTITADKSTSTAYMELSSLRSEDTAVYYCARRRLPPDWYFDVWGQGTTVTVSS VL: DVVMTQSPLSLPVTLGQPASISCRSSQSLVHSDGNTYLHWYQQKPGQPPKLLIYKVSNRFSGVPDRFSGSGSGTDFTLKISRVEAEDVGVYFCSQSTHVPWTFGGGTKVEIK | 0.000121 s⁻¹ | 0.000121 s⁻¹
7 | VH7/VK2: humanized anti-PD-L2 variant; SEQ ID NO: 7/SEQ ID NO: 11 (antibody, V domains shown) VH: QVQLVQSGAELKKPGSSVKVSCKASGYAFSNYFIEWVKQPPGKGLEWIGLNIPGSGGSNYAEKFKGRATITADKSTSTAYMELSSLRSEDTAVYYCARRRLPPDWYFDVWGQGTTVTVSS VL: DVVMTQSPLSLPVTLGQPASISCRSSQSLVHSDGNTYLHWYQQKPGQPPKLLIYKVSNRFSGVPDRFSGSGSGTDFTLKISRVEAEDVGVYYCSQSTHVPWTFGGGTKVEIK | 0.000118 s⁻¹ | 0.000118 s⁻¹
8 | VH6/VK2: humanized anti-PD-L2 variant; SEQ ID NO: 6/SEQ ID NO: 11 (antibody, V domains shown) VH: QVQLVQSGAEVKKPGSSVKVSCKASGYSFSNYFIEWVKQPPGKGLEWIGLNIPGSGGSNYAEKFKGRVTITADKSTSTAYMELSSLRSEDTAVYYCARRRLPPDWYFDVWGQGTTVTVSS VL: DVVMTQSPLSLPVTLGQPASISCRSSQSLVHSDGNTYLHWYQQKPGQPPKLLIYKVSNRFSGVPDRFSGSGSGTDFTLKISRVEAEDVGVYYCSQSTHVPWTFGGGTKVEIK | 0.000128 s⁻¹ | 0.000128 s⁻¹
